We go through six molecules from patent publication US20250295803A1, “5T4 ANTIBODY-DRUG CONJUGATES AND USES THEREOF” (EXELIXIS, INC., priority 2022, published 2025).

A short description of data set [1]: Size exclusion chromatography (SEC) developability. It is filed as physicochemical. The conditions noted are these: 1 mg/mL in Dulbecco's PBS pH 7.4. The protocol: Antibodies that were selected for binding to 5T4, such as those described in Examples 2 and 3, were tested by various methods to assess developability. For example, various chromatographic methods, including size exclusion chromatography (SEC), hydrophobic interaction chromatography (HIC), and standup monolayer adsorption chromatography (SMAC) were employed to assess factors, such as monomer percentage, solubility, and antibody aggregation or precipitation.
Size exclusion chromatography (SEC) analysis was performed using a 7.8 mm ID×30 cm TSKgel G3000SWXL column (Tosoh Bioscience LLC, PN 08541) with a 6 mm×4 cm guard column (PN 08543) on an Agilent 1100 HPLC. Antibodies were normalized to 1 mg/mL concentration in Dulbecco's PBS (pH 7.4, without Ca^2+/Mg^2+) and clarified via centrifugation to pellet particulates while still retaining soluble aggregates. The mobile phase buffer was Dulbecco's PBS (pH 7.4, without Ca^2+/Mg^2+) at 2× concentration (diluted from 10× stock concentration. For each sample, 10 μL was loaded and isocratically eluted at 1.0 mL/minute over 20 minutes at ambient temperature. Absorbance was monitored at 280 nm. Chromatographic peaks were integrated to determine percentage of homogeneity and retention time. The column stationary phase along with choice of mobile phase supports hydrophobic and electrostatic interactions in addition to molecular sizing (secondary interactions much milder compared to SMAC). Data analysis was performed using Agilent ChemStation B.04.03 SP1.

The next data set deals with HEK-5T4 cells. The data set is described as follows: Cell binding (flow cytometry), HEK-5T4 cells. It is filed as cell-based. The method, then: Antibodies that were selected for binding to 5T4, for example, such as those described in Example 2, were evaluated for binding to cells that express 5T4. Cells were harvested at 70-90% confluence on the day of the assay. In a v-bottom 96-well plate (Costar 3897), 100,000 cells per well were incubated with 50 μL per well 8- or 12-point antibody dilution series for 30 minutes at +4° C. After incubation, cells were washed once with PBS by centrifugation at 200×g for 5 minutes. Cells were then incubated with 50 μL per well of Alexa Fluor 488 Goat anti-human IgG Fab (Jackson Immuno Research 109-547-003) at 1:100 dilution for 30 minutes at +4° C. Cells were washed twice with PBS by centrifugation at 200×g for 5 minutes and were acquired on iQue Screener Plus (Sartorius). Mean fluorescence intensities of BL1 (Alexa-Fluor-488) channel were plotted against antibody concentrations to generate a dose response curve and EC50 values.

The target in data set [2] is T1, HEK293 and CHO cells transfected to express cyno 5T4 (Macaca fascicularis, UniProt Q4R8Y9).
T1 construct: expressed in transfected cells; host or cells: HEK293 and CHO
T1 sequence (Q4R8Y9 35-420): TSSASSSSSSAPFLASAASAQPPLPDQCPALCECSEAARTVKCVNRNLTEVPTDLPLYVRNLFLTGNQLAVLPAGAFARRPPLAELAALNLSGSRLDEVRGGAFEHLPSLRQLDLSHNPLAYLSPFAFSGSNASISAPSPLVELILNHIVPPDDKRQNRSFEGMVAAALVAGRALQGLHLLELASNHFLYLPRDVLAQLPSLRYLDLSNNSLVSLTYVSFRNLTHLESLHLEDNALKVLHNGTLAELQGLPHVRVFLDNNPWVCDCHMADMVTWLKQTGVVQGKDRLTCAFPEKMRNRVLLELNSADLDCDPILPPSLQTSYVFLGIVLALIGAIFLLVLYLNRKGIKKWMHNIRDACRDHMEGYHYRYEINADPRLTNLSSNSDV
The data set is described as follows: Cell binding to transfected HEK293 and CHO cells, cyno 5T4. It is filed as cell-based. The protocol:
Unconjugated antibodies were tested for their ability to bind to HEK293 and CHO cells transfected to express human, cyno, rat, or mouse 5T4.

Data set [3] has as its target T2, rat 5T4 on transfected HEK293 and CHO cells (rat, UniProt Q5PQV5 32-426).
T2 construct: whole, on cells
T2 sequence (looked up): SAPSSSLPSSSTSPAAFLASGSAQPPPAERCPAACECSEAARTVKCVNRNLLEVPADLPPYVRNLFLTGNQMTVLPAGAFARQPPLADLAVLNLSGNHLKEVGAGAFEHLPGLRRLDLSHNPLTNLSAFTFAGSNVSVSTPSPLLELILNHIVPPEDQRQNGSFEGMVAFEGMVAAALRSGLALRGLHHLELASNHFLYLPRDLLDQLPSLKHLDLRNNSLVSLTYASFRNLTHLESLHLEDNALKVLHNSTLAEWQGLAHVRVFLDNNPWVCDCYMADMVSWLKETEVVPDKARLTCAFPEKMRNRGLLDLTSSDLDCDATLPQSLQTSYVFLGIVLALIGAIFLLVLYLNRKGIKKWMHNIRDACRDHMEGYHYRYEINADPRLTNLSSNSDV
The data set can be described thus: cell binding on transfected HEK293 and CHO cells.

Data set [4] has as its target T3, unconjugated human TPBG/5T4 protein with a c-terminal polyhistidine and Avi tag (AcroBiosystems Cat. No. … (human, UniProt Q13641 32-355)).
T3 construct: Bought protein; also called Acro TPGH52E5; Acro Catalog No. TPGH52E; not shown: C-terminal polyhistidine and Avi tag
T3 sequence: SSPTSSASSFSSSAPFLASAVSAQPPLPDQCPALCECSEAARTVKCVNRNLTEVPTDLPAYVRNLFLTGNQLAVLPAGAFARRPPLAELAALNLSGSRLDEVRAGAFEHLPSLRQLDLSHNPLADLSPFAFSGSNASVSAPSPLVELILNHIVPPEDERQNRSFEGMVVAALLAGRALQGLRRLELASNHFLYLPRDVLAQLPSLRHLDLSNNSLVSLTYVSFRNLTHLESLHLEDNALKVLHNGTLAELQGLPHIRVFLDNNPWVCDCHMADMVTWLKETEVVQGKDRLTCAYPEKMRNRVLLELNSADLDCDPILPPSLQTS
The data set is described as follows: ELISA on coated human 5T4 His-Avi (Acro TPG-H52E5); antibody condition: pH 5.5 Day 0. The method, then: (§1) A. Normal Binding Unconjugated antibodies were tested for their ability to bind to human 5T4 (hu5T4) using ELISA. On Day 1, unconjugated human TPBG/5T4 protein with a c-terminal polyhistidine and Avi (AVITAG™) tag (AcroBiosystems (Newark, DE, USA), Cat. No. TPG-H52E5) was diluted 2 μg/mL in PBS, mixed thoroughly, plated 100 μL per well in a 96-well plate (Nunc MAXISORP®) and incubated overnight at 4° C.
2. Low pH Stress Test. Several unconjugated antibodies were tested for their ability to bind to 5T4 using ELISA under acidic (low pH) conditions. Solutions of 1 mg/mL to 10 mg/mL of antibody in […] were prepared and stored at 37° C. for 1 to 2 weeks.
Background: ELISA stands for enzyme-linked immunosorbent assay.

Data set [5] concerns the target T3, unconjugated human TPBG/5T4 protein …. The data set is described as follows: ELISA on coated human 5T4 His-Avi (Acro TPG-H52E5); antibody condition: pH 8.5 Day 4. The protocol: as §1

B1: mAbA4: 5T4 antibody comprising VH of SEQ ID NO:25 and VL of SEQ ID NO:26 (antibody, V domains shown)
VH: EVQLVESGGGLVQPGGSLRLSCAASGFTFSRYYIHWVRQAPGKGLEWVAFISPGGSYTYYADSVKGRFTISADTSKNTAYLQMNSLRAEDTAVYYCAREYYSMGVLDYWGQGTLVTVSS
VL: DIQMTQSPSSLSASVGDRVTITCRASQSVSSAVAWYQQKPGKAPKLLIYSASSLYSGVPSRFSGSRSGTDFTLTISSLQPEDFATYYCQQAYESPYTFGQGTKVEIK
modifications: Antibody mAbA4 VH Sequence; Antibody mAbA4 VL Sequence
As for B1, the “developability based on SEC analysis” value in data set [1] is recorded as “strong developability”. In the data set with HEK-5T4 cells, the “binding to HEK-5T4 cells” value was “binding”. The “reactivity to cells transfected to express cyno 5T4” value (shortened to “reactivity to cells transfected”) in data set [2] was “reactive”.

B2: mAbA15: 5T4 antibody comprising VH of SEQ ID NO:44 and VL of SEQ ID NO:45 (antibody, V domains shown)
VH: EVQLVESGGGLVQPGGSLRLSCAASGFTFSSYYIHWVRQAPGKGLEWVAYITSTGSYTEYADSVKGRFTISADTSKNTAYLQMNSLRAEDTAVYYCARYDRSTRYSGLDYWGQGTLVTVSS
VL: DIQMTQSPSSLSASVGDRVTITCRASQSVSSAVAWYQQKPGKAPKLLIYSASSLYSGVPSRFSGSRSGTDFTLTISSLQPEDFATYYCQQAYATPVTFGQGTKVEIK
modifications: Antibody mAbA15 VH Sequence; Antibody mAbA15 VL Sequence
As to B2, the “developability based on SEC analysis” value in data set [1] is listed as “strong developability”. In addition, the “binding to HEK-5T4 cells” value in the data set with HEK-5T4 cells is “binding”. Also, in data set [2], the “reactivity to cells transfected” value was “reactive”.

B3: mAbA17 (antibody, V domains shown)
VH: EVQLVESGGGLVQPGGSLRLSCAASGFTFSRYWIHWVRQAPGKGLEWVAAIFPYSGSTLYADSVKGRFTISADTSKNTAYLQMNSLRAEDTAVYYCARSPSRSILPSGLDYWGQGTLVTVSS
VL: DIQMTQSPSSLSASVGDRVTITCRASQSVSSAVAWYQQKPGKAPKLLIYSASSLYSGVPSRFSGSRSGTDFTLTISSLQPEDFATYYCQQGDGSPYTFGQGTKVEIKR
notes: also called Antibody mAbA17
Usually EC50 stands for the concentration giving half of the maximal effect. Higher therefore signals a need for much substance. As for B3, in data set [3], the binding result was “no binding”. Further, the EC50 worked out at 164 pM in data set [4] and 150 pM in data set [5].

B4: mAbA17: 5T4 antibody comprising VH of SEQ ID NO:62 and VL of SEQ ID NO:63 (antibody, V domains shown)
VH: EVQLVESGGGLVQPGGSLRLSCAASGFTFSRYWIHWVRQAPGKGLEWVAAIFPYSGSTLYADSVKGRFTISADTSKNTAYLQMNSLRAEDTAVYYCARSPSRSILPSGLDYWGQGTLVTVSS
VL: DIQMTQSPSSLSASVGDRVTITCRASQSVSSAVAWYQQKPGKAPKLLIYSASSLYSGVPSRFSGSRSGTDFTLTISSLQPEDFATYYCQQGDGSPYTFGQGTKVEIK
modifications: Antibody mAbA17 VH Sequence; Antibody mAbA17 VL Sequence
Regarding B4, in data set [1], the “developability based on SEC analysis” value is on record as “strong developability”. In the data set with HEK-5T4 cells, the “binding to HEK-5T4 cells” value is given as “binding”. In addition, the “reactivity to cells transfected” value in data set [2] was “reactive”.

B5: mAbA15 (antibody, V domains shown)
VH: EVQLVESGGGLVQPGGSLRLSCAASGFTFSSYYIHWVRQAPGKGLEWVAYITSTGSYTEYADSVKGRFTISADTSKNTAYLQMNSLRAEDTAVYYCARYDRSTRYSGLDYWGQGTLVTVSS
VL: DIQMTQSPSSLSASVGDRVTITCRASQSVSSAVAWYQQKPGKAPKLLIYSASSLYSGVPSRFSGSRSGTDFTLTISSLQPEDFATYYCQQAYATPVTFGQGTKVEIKR
notes: also called Antibody mAbA15
Regarding B5, in data set [3], the binding result was “no binding”. The concentration giving a half-maximal response (EC50) is 124 pM in data set [4] and 133 pM in data set [5].

B6: mAbA4 (antibody, V domains shown)
VH: EVQLVESGGGLVQPGGSLRLSCAASGFTFSRYYIHWVRQAPGKGLEWVAFISPGGSYTYYADSVKGRFTISADTSKNTAYLQMNSLRAEDTAVYYCAREYYSMGVLDYWGQGTLVTVSS
VL: DIQMTQSPSSLSASVGDRVTITCRASQSVSSAVAWYQQKPGKAPKLLIYSASSLYSGVPSRFSGSRSGTDFTLTISSLQPEDFATYYCQQAYESPYTFGQGTKVEIKR
notes: also called Antibody mAbA4
In the case of B6, in data set [3], the binding result is listed as “no binding”. In addition, the EC50 in data set [4] came to 133 pM; in data set [5], 114 pM.
